Ten molecules from patent US20130209481A1 (University of California, published 2013) can be followed below.

For experiment [1], the target named is T1, yeast displayed EphA2 extracellular domain (EphA2 ECD, aa 25-534) (Homo sapiens (Human), UniProt P29317 25-534).
T1 construct: also called Y-EphA2; Y-EphA2 ECD
Briefly: phage recovery: 10^11 phage with 10^8 yeast cells, elution and titration.

Experiment [2] has as its target T1, yeast displayed EphA2 extracellular …. Put plainly: yeast displayed antigen incubated with 10^9 phage, titer of bound phage.
In experiment [3] the target is T2, yeast displayed CD44 link domain (CD44 ECD domain 1, aa 21-169) (Homo sapiens (Human), UniProt P16070 21-169).
T2 construct: also called Y-CD44 D1; Y-CD44 ECD D1
Briefly: yeast displayed antigen incubated with 10^9 phage, titer of bound phage (mismatched pair).

Experiment [4] deals with T3, EphA2 on the surface of MDAMB231 cells (native EphA2) (human, UniProt P29317 24-976).
T3 construct: whole, on cells; from NP40 cell extracts in the immunoprecipitation; also called native antigen; receptor from cell extracts of MDAMB231 cells
Put plainly: flow cytometry of phage antibody on MDAMB231 cells.

Experiment [5] has as its target T1, yeast displayed EphA2 extracellular …. Put plainly: flow cytometry of monoclonal phage antibody on yeast displayed EphA2 ECD.
Experiment [6] has as its target T2, yeast displayed CD44 link domain (CD44 …). Put plainly: flow cytometry of monoclonal phage antibody on yeast displayed CD44 domain 1.
Experiment [7] shares this target. Briefly: fd phage antibody selected on yeast displayed antigen; screened by flow cytometry as in Examples 4 and 5.
The target of experiment [8] is T3, EphA2 on the surface of MDAMB231 cells …. Briefly: flow cytometry competition on MDAMB231 cells; competitors: phage antibodies D2-1A7 and D2-1A9.
Experiment [9] has as its target T1, yeast displayed EphA2 extracellular …. Briefly: phagemid antibody selected on yeast displayed antigen; screened by flow cytometry as in Examples 4 and 5.
Experiment [10] shares this target. Briefly: fd phage antibody selected on yeast displayed antigen; screened by flow cytometry as in Examples 4 and 5.

T1 sequence (P29317 25-534 limits assumed): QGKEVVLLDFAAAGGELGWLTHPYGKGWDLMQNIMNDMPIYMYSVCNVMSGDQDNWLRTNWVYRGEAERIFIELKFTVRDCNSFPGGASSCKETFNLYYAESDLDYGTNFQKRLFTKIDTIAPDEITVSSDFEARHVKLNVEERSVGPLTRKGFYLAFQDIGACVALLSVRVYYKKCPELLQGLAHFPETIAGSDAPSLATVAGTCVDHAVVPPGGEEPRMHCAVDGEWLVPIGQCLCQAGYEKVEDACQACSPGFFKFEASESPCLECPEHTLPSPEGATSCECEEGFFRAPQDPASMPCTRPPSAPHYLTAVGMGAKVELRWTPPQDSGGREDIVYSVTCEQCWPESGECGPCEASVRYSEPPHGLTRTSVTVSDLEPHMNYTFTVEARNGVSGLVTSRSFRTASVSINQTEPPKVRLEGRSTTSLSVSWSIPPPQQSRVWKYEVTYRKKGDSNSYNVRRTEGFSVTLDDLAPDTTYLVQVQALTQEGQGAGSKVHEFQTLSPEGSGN
T3 sequence (P29317 24-976): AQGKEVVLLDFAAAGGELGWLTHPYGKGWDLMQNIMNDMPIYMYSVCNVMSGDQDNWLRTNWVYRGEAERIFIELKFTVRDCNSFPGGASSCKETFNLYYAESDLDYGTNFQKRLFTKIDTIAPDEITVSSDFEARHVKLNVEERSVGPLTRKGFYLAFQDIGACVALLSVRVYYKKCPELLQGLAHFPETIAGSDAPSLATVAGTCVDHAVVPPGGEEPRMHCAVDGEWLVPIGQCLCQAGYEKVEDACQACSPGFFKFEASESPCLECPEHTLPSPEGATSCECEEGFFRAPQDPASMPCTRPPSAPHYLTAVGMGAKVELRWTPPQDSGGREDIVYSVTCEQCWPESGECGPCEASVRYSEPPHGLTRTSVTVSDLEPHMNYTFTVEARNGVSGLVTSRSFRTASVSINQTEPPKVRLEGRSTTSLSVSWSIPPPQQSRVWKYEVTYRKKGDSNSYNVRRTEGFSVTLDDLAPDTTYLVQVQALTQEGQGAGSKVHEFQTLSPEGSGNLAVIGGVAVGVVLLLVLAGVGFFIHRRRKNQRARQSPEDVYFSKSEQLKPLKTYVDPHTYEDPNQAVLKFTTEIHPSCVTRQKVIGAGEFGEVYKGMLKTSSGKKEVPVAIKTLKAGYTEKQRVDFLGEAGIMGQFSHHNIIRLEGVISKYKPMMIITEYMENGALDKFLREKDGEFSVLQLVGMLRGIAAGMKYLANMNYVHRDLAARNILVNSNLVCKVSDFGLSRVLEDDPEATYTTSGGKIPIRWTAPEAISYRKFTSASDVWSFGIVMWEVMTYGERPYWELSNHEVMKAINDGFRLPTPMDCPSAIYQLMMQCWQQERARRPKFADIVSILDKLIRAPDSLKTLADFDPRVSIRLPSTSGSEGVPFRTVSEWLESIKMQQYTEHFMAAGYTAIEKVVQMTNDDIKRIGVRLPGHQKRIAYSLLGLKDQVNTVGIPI
T2 sequence (P16070 21-169 limits assumed): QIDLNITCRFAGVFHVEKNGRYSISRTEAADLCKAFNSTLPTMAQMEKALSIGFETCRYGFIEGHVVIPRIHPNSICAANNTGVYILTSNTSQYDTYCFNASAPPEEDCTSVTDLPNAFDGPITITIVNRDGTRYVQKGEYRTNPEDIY

B1: anti-EphA2 human scFv 2D6 (scFv, V domains shown)
VH: QVQLQESGGGLVQPGGSLRLSCAASGFTFSSYAMSWVRQAPGKGLDWVSIIYNGDNTYYADSVKGRFTISRDNSKNSLYLQMNSLRAEDTAVYYCARWSGTSYDYWGQGTLVTVSS
VL: SELTQDPAVSVALGQTVRITCQGDSLRSYYASWYQQKPGQAPLLVIYGENNRPSGIPDRFSGSSSGNTASLTITGAQAEDEADYYCHSRDSSGTHLRVFGGGTKVTVLG
notes: scFv; soluble scFv with C-terminal (His)6 tag (pUC119mycHis) in the immunoprecipitation; also called anti-EphA2 phage antibody 2D6; PhAb-EphA2
For the molecule B1, the “fold recovery of phage against recovery from yeast displaying an irrelevant scFv (Y-CON)” value in [1] was > 10000 fold. Besides, the “PhAb Output/Input” value in [2] was 0.06 ratio of output/input phage; in [3] it was 1e-06 ratio of output/input phage.

B2: anti-EphA2 human scFv D2-1B1 (scFv, V domains shown)
VH: QVQLQESGGGVVQPGRSLRLSCAASGFTFSSYGMHWVRQAPGKGLEWVAVISYDGSNKYYADSVKGRFTISRDNSKNTLYLQMNSLRAEDTAVYYCAKVIAGGAYYGSADYWGQGTLVTVSS
VL: SELTQDPAVSVALGQTVKITCQGDSLRTYYASWYQQKPGQAPVLVIYGENSRPSGIPDRFSGSSSGNTASLTITGAQAEDEADYYCHSRDSSGTHLRVFGGGTKLTVLG
For B2, the binding result in [4] and in experiment [5] was “binds” each time.

B3: anti-EphA2 human scFv D2-1A7 (scFv, V domains shown)
VH: QVQLQQSGGGVVQPGRSLRLSCAASGFTFSSYAMHWVRQAPGKGLEWVAVISYDGSNKYYADSVKGRFTISRDNSKNTLYLQMNSLRAEDTAVYYCARASVGATGPFDIWGQGTMVTVSS
VL: SELTQDPAVSVALGQTVSITCQGDSLRSYYASWYQQKPGQAPLLVIYGENNRPSGIPDRFSGSSSGNTASLTITGAQAEDEADYYCNSRDSSGTHLTVFGGGTKLTVLG
notes: soluble scFv with C-terminal (His)6 tag in the immunoprecipitation; also called anti-EphA2 phage D2-1A7
Consider B3, for which the binding result in experiment [4] and in experiment [5] was “binds” in each case.

B4: anti-CD44 human scFv F2-1A6 (scFv, V domains shown)
VH: QVQLVQSGAEVKKPGESLKISCKGSGYSFTSYWIGWVRQMPGKGLEWMGIIYPGDSDTRYSPSFQGQVTISADKSISTAYLQWSSLKASDTAMYYCARRLHGPFYFDYWGQGTLVTVSS
VL: SELTQDPAVSVALGQTVRITCQGDSLRSYYASWYQQKPGQAPLLVIYGKNIRPSGIPDRFSGSSSGNTASLTITGAQAEDEADYYCNSRDSSGNHVVFGGGTKLTVLG
notes: soluble scFv with C-terminal (His)6 tag in the immunoprecipitation; also called anti-CD44 phage F2-1A6
As for B4, the binding result in experiment [6] is reported as “binds”.

B5: anti-EphA2 human scFv D2-1A9 (scFv, V domains shown)
VH: QVQLVESGGGLIQPGGSLKLSCAASGFTVSNSYMSWVRQAPGKGLEWVAVIYSAGNTYYADSVKGRFTISRDTSNNTVHLQMNSLRPEDTAVYYCAREGSFGYDYRGQGTLVTVSS
VL: DIVMTQSPGTLSLSPGERATLSCRASQSVSSSFLGWYQQKPGQAPRLLIYGASSRATGIPDRFSGSGSGTDFTLTISRLEPEDFAVYYCQQYGISPLTFGGGTKVEIKR
notes: also called anti-EphA2 phage D2-1A9
As to B5, the binding result in experiment [4] and in [5] was “binds” throughout.

B6: E8F11 (scFv)
scFv: QVQLQQSGGGLVQPGGSLRLSCAASGFTFSSYAMSWVRQAPVKGLEWVSAISGSGGSTYYADSVKGRFTISRDNSKNTLYLQMNSLRIEDTAVYYCGRHLSSGSSVDYWGQGTLVTVSSGGGGSGGGGSGGGGSSELTQPPSASGSPGQSVTISCTGTSSDVGGYNYVSWYQQRPGYAPKLMIYDVSNRPSGVSNRFSGSKSGNSASLDISGLQSEDEADYYCAAWDDSLREFLFGTGTKVTVLG
notes: also called fd phage antibody E8F11
Take B6: the binding result in experiment [7] is reported as “binds”.

B7: recombinant mouse Ephrin A1 with human Fc fusion protein (R&D Systems) (Fc fusion, UniProt P52793 19-182, looked up)
chain: DRHIVFWNSSNPKFREEDYTVHVQLNDYLDIICPHYEDDSVADAAMERYTLYMVEHQEYVACQPQSKDQVRWNCNRPSAKHGPEKLSEKFQRFTPFILGKEFKEGHSYYYISKPIYHQESQCLKLKVTVNGKITHNPQAHVNPQEKRLQADDPEVQVLHSIGYS
notes: Bought reagent; also called rEphrinA1-human Fc fusion protein; not shown: human Fc
Regarding B7, the “fold difference between the IC50 of ephrin A1 against D2-1A7 and against D2-1A9” value in [8] was 9 fold.

B8: 1A12 (scFv)
scFv: QVQLQESGGGLVQPGGFLRLSCAASGFTFSSYGMHWVRQTPGKGLEWVSYISSSSSYTNYADSVKGRFTISRDNSKNTLYLQMNSLRAEDTAVYYCARDNWYFDLWGRGTLVTVSSGGGGSGGGGSGGGGSDVVMTQSPSTLSASVGDRVSITCRASESISRWLAWYQQKPGKAPKALIYKASSLESGVPSRFSGSGSATEFTLTINSLQPDDFATYYCQQYSSYPLTFGQGTKVDIKR
notes: also called phagemid antibody 1A12
For B8, the binding result in [9] is “binds”.

B9: E8H7 (scFv)
scFv: QVQLQESGGGLVQPGGSLRLSCSASGFTFSSYAMHWVRQAPGKGLEYVSAISSNGGSTYYADSVKGRFTISRDNSKNTLYLQMSSLRAEDTAVYYCVARLEWLPLAWDYWGQGTLVTVSSGGGGSGGGGSGGGGSSELTQDPAVSVALGQTVRITCQGDSLRSYYASWYQQKPGQAPVLVIYGKNNRPSGIPDRFSGSSSGNTASLTITGAQAEDEADYYCNSRDSSGNHKVFGGGTKLTVLG
notes: also called fd phage antibody E8H7
Regarding B9, the binding result in experiment [7] is listed as “binds”.

B10: A3H9 (scFv)
scFv: QVLLVESGGGVVQAGASLRVSCAASGFSLTSYGMHWVRQAPGKGLEWVAFISSDGSDKYYVDSVKGRFTISRDTSKNMMYLQMNSLTTEDTAVYYCAKDWGSNWYLFDYWGQGTLVTVSSGGGGSGGGGSGGGGSQSVLTQPPSASETPGQRVTISCSGSSSNIGANTVHWYQQFPGTAPKLLIYSYSQRPSGVPDRFSDSKSGTSASLAISGLQSEDEADYYCAAWDDILNGWVFGGGTKVTVLG
notes: also called fd phage antibody A3H9
Consider B10, for which the binding result in experiment [10] was “binds”.
